From patent publication US20210032315A1 (VIVORYON THERAPEUTICS N V, published 2021)
Read-outs that look alike come from different tables or passages of the source.

T1: full length human CD32A (human, UniProt P12318 34-317)
T1 construct: whole, on cells; also called Fc gamma receptor
T1 sequence (looked up): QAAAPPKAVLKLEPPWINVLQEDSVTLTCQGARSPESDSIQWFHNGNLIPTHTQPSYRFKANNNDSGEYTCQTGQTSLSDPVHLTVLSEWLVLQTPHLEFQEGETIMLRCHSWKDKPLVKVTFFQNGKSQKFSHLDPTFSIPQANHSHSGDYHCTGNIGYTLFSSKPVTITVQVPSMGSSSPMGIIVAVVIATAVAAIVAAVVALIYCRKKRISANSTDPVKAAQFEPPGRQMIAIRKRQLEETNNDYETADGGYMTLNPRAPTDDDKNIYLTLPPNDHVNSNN

T2: full length human CD32B (human, UniProt P31994 43-310)
T2 construct: whole, on cells; also called Fc gamma receptor
T2 sequence (looked up): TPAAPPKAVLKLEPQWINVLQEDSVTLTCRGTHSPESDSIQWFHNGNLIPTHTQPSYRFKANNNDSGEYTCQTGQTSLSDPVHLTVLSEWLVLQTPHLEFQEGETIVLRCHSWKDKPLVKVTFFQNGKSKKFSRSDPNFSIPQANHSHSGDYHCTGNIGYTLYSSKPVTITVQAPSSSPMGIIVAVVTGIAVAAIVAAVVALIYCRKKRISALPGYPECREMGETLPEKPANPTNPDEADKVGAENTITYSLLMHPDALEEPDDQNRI

T3: Aβ (4-18) (human)
T3 peptide: FRHDSGYEVHHQKLV

T4: Aβ (1-18) (human)
T4 peptide: DAEFRHDSGYEVHHQKLV


Assays:
full length human CD32A = molecular target: T1, full length human CD32A; assay: FACS on CHO cells stably expressing the receptor, 7 concentrations
Method: (§1) The binding was measured in a FACS based bioassay to Chinese Hamster Ovary (CHO) cells stably expressing full length human CD16A, CD32A, CD32B, or CD64. Both antibodies were incubated with each cell line at 7 different concentrations for one hour followed by washing. Receptor-bound H6 or H67 was detected with fluorochrome conjugated-anti-Fab′. Binding capacity was measured by FACS and the Kd and Bmax were calculated by non-linear regression.

full length human CD16A = molecular target: T5, full length human CD16A (human, UniProt P08637 17-254); assay: as above
T5 construct: whole, on cells; also called Fc gamma receptor
Method: as §1

full length human CD64 = molecular target: T6, full length human CD64 (human, UniProt P12314 16-374); assay: as above
T6 construct: whole, on cells; also called Fc gamma receptor
Method: as §1

full length human CD32B = molecular target: T2, full length human CD32B; assay: as above
Method: as §1

[1] = molecular target: T7, Oligomers of Aβ (1-42) peptides (human); assay: SPR, oligomers captured on the chip, antibody as analyte, single cycle kinetics
T7 construct: Oligomeric Aβ 1-42, made by the ACUMEN protocol in Ham's F12 at 4 °C and captured on the sensor chip (about 300 RU); also called Aβ (1-42) oligomers
Method: Oligomers of Aβ (1-42) peptides were generated according to the ACUMEN protocol in Ham's F12 medium overnight at 4° C. and separated from aggregated Aβ by centrifugation. Afterwards the oligomers were aspirated in 20 μl, diluted in 60 μl running buffer and loaded onto a sensor chip by use of capture antibodies with a flow rate of 1 μl/min. Then, the system was washed overnight with 100 μl/min getting a stable baseline.
(§2) The obtained sensorgrams were evaluated using five consecutive concentrations (starting with the first injection showing binding) and the Single Cycle Kinetics model with a global fit of Rmax and baseline drift and local fits of the bulk effect of every injection.

[2] = molecular target: T8, Fibrils of Aβ (1-42) peptides (human); assay: SPR, fibrils captured on the chip, antibody as analyte, single cycle kinetics
T8 construct: Fibrillar aggregate of Aβ 1-42, made at pH 8.7 and 37 °C and captured on the sensor chip (about 100 RU); also called Aβ (1-42) fibrils
Method: as §2

Aβ (4-18) [3] = molecular target: T3, Aβ (4-18); assay: SPR, antibody captured by anti-human antibody, peptide as analyte, steady-state model
Aβ (4-18) [4] = molecular target: T3, Aβ (4-18); assay: as above
Aβ (1-18) = molecular target: T4, Aβ (1-18); assay: SPR, antibody captured by anti-human antibody, peptide as analyte

T8 sequence (peptide, as listed by the source): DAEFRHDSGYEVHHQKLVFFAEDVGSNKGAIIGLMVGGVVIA
T7 sequence (peptide, as listed by the source): as above
T6 sequence (P12314 16-374): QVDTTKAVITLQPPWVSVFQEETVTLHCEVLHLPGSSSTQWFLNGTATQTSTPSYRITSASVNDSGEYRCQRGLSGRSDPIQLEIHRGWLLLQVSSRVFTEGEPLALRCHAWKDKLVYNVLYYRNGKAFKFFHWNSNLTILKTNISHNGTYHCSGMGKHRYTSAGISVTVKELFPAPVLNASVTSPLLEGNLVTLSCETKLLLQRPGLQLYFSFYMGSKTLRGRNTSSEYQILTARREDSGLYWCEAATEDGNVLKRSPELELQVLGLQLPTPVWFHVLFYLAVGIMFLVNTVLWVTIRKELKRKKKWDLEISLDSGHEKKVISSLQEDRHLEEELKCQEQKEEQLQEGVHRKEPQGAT
T5 sequence (P08637 17-254): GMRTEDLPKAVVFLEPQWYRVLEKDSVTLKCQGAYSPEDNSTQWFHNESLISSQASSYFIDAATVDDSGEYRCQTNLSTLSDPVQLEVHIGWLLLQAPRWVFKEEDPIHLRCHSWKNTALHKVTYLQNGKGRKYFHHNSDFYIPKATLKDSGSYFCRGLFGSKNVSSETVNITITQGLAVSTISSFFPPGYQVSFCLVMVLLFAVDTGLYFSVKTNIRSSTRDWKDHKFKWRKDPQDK

binding result (full length human CD32A)	binding result (full length human CD16A)	binding result (full length human CD64)	binding result (full length human CD32B)	Kd [1]	koff [1]	kon [1]	Kd [2]	koff [2]	kon [2]	Kd (Aβ (4-18) [3])	Kd (Aβ (4-18) [4])	Kd (Aβ (1-18))	Binder
binds	binds	binds	binds										K324A mutant variant (comprising the heavy chain of SEQ ID NO: 18) (antibody, human IgG1, kappa, also called antibody according to B)) heavy: not shown light: DVVMTQSPLSLPVTLGQPASISCKSSQSLLYSDGKTYLNWFQQRPGQSPRRLTYLVSKLDSGVPDRFSGSGSGTDFTLKISRVEAEDVGVYYCVQGTHFPFTFGGGTKVEIKRTVAAPSVFIFPPSDEQLKSGTASVVCLLNNFYPREAKVQWKVDNALQSGNSQESVTEQDSKDSTYSLSSTLTLSKADYEKHKVYACEVTHQGLSSPVTKSFNRGEC
				269 nM			1.67 nM			> 10000 nM	28300 nM	> 10000 nM	humanized and de-immunized antibody clone #6 of the present invention (antibody, V domains shown, It was captured by a polyclonal anti-human antibody, so it has human constant regions) VH: QVQLVQSGAEVVKPGASVKVSCKASGYSFTGHTMNWVRQAPGQGLEWMGLINPSDGVTRYNQKFQGRVTITRDTSTTTVHMELTSLTSEDTATYYCTREAKREWDETYWGQGTLVTVSS VL: DVVMTQSPLSLPVTLGQPASISCKSSQSLLYSDGKTYLNWFQQRPGQSPRRLTYLVSKLDSGVPDRFSGSGSGTDFTLKISRVEAEDVGVYYCVQGTHFPFTFGGGTKVEIK

The remaining lines, values behind:

Binder	binding result (full length human CD32A)	binding result (full length human CD16A)	binding result (full length human CD64)	binding result (full length human CD32B)	Kd [1]	koff [1]	kon [1]	Kd [2]	koff [2]	kon [2]	Kd (Aβ (4-18) [3])	Kd (Aβ (4-18) [4])	Kd (Aβ (1-18))
antibody comprising the wild-type heavy chain of SEQ ID NO: 19 (antibody, human IgG1, kappa, also called antibody according to A)) heavy: not shown light: DVVMTQSPLSLPVTLGQPASISCKSSQSLLYSDGKTYLNWFQQRPGQSPRRLTYLVSKLDSGVPDRFSGSGSGTDFTLKISRVEAEDVGVYYCVQGTHFPFTFGGGTKVEIKRTVAAPSVFIFPPSDEQLKSGTASVVCLLNNFYPREAKVQWKVDNALQSGNSQESVTEQDSKDSTYSLSSTLTLSKADYEKHKVYACEVTHQGLSSPVTKSFNRGEC	binds	binds	binds	binds									
parental antibody clone #6 disclosed in WO 2017/009459 (antibody, V domains shown, also called parental clone #6 variant) VH: QVQLVQSGAEVKKSGASVKVSCKASGYSFTGHTMNWVRQAPGQGLEWMGLINPSNGVTRYNQKFQGRVTITRDTSTTTVHMELTSLTSEDTATYYCTREAKREWDETYWGQGTLVTVSS VL: DVVMTQSPLSLPVTLGQPASISCKSSQSLLYSDGKTYLNWFQQRPGQSPRRLTYLVSKLDSGVPDRFSGSGSGTDFTLKISRVEAEDVGVYYCVQGTHFPFTFGGGTKVEIK					7.61 nM	0.000142 s⁻¹	18600 M⁻¹ s⁻¹	0.0659 nM	6.53e-05 s⁻¹	990000 M⁻¹ s⁻¹			
